Results on two molecules are retold here after patent US20240343810A1 (published 2024).

The target in assay [1] is T1, mouse ICOS-mFc (Chimerigen) (mouse, UniProt Q9WVS0 21-141, limits assumed).
T1 construct: Bought; also called recombinant mouse ICOS protein; mICOS; not shown: mouse Fc of the bought fusion
T1 sequence: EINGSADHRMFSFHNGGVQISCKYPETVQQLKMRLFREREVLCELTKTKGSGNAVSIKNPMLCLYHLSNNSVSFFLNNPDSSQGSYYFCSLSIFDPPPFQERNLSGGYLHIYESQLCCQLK
Description: DELFIA ELISA on coated mouse ICOS-mFc, N=3. The protocol: Recombinant ICOS proteins, human ICOS-mFc or mouse ICOS-mFc (Chimerigen) were diluted in 1×PBS and added to Black Hi-bind plates (Griener) at 1 μg/ml, 50 μl/well. Recombinant PD-L1 proteins, human PD-L1-Flag-His or mouse-His were diluted in 1×PBS and added to Black Hi-bind plates (Griener) at 4 μg/ml, 50 μl/well. The plates were left overnight at 4° C. The next day plates were washed 3× with 300 μl/well of 1×PBS+0.1% Tween and blocked with 200 ul/well of 1×PBS+1% BSA blocking buffer for 1 hr at RT on a plate shaker. Plates were washed 3× with 300 μl/well of 1×PBS+0.1% Tween.
However, human-PD-L1 mAb² antibodies were diluted in 1×PBS+0.1% BSA buffer and diluted 1 in 2 from a starting working concentration of 0.066 μM over an 11 point titration. Titrated antibodies were added to the plates, 50 μl/well and left to incubate for 1 hr at R.T on a plate shaker. Plates were washed 3× with 300 μl/well of 1×PBS+0.1% Tween.
DELFIA® Eu-labelled Anti-human IgG (Perkin-Elmer) was diluted 1:500 in DELFIA Assay buffer (Perkin-Elmer) and added to the assay plate (50 μl/well), left to incubate for 1 hr at RT on a plate shaker. […] After incubation, assay was read on Envision plate reader (Perkin Elmer), Time-resolved fluorescence (TRF) was measured at 615 nm.

In assay [2] the target is T1, mouse ICOS-mFc (Chimerigen). Description: HTRF, mouse ICOS-mFc, competitor mouse B7-H2-Alexa 647, n2. The method, then: 5 μl of human ICOS-mFc (Chimerigen) at 20 nM (5 nM final) or 5 ul of mouse ICOS-mFc (Chimerigen) at 4 nM (1 nM final) were added to relevant assay wells. Plate was incubated for 1 hour (hr) at room temperature (RT).
After incubation, assay was read on Envision plate reader (Perkin Elmer) using a standard HTRF protocol. 620 nm and 665 nm channel values were exported to Microsoft Excel and % Delta-F and % Neutralisation calculations performed. Titration curves and IC50 values [M] were plotted using Graphpad (Prism). IC50 values were calculated by first transforming the data using equation X=Log(X). The transformed data was then fitted using nonlinear regression, using fitting algorithm, log (inhibitor) vs. response—variable slope (four parameters).
(In general: In TR-FRET formats the signal depends on donor and acceptor labels being close together.)

Assay [3] concerns the target T2, mouse ICOS expressed on CHO cells (mouse, UniProt Q9WVS0 21-200).
T2 construct: also called CHO-S cells transfected with mouse ICOS; mICOS
T2 sequence (looked up): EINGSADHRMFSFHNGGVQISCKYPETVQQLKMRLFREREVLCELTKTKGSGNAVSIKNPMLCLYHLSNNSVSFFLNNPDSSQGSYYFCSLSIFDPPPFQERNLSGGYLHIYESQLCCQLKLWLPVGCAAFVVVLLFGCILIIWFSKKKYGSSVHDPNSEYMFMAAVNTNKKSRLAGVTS
Description: Flow cytometry on CHO-S mouse ICOS cells, anti-human IgG AF647, N=3. The protocol: CHO—S cells transfected with either human ICOS or mouse ICOS were resuspended in FACS buffer (PBS+1% w/v BSA+0.1% w/v sodium azide) and transferred to a 96-well V-bottom plate (Greiner) at a density of 1×10⁵ cells per well. mAb and mAb² were titrated in FACS buffer, 1 in 3 dilution across 11 points from a starting working concentration of 400 nM. Plates were centrifuged at 300×g for 3 minutes, supernatant discarded and 50 μL mAb or mAb² solution were added to cells and incubated at 4° C. for 1 hour. Cells were washed with 150 μL of PBS and centrifuged at 300×g for 3 minutes, supernatant was discarded and cell pellet resuspended in 150 μL PBS added. This wash step was repeated twice. Bound mAb or mAb² was detected by addition of 50 μL of anti-human 647 (Jackson ImmunoResearch) diluted to 3 ug/ml in FACS buffer. Cells were incubated for 1 hour at 4° C. in the dark. Cells were washed with 150 μL of PBS and centrifuged at 300 g for 3 minutes, supernatant was discarded and cell pellet resuspended in 150 μL PBS added. This wash step was repeated twice. Cells were fixed with 25 μL 4% v/v paraformaldehyde, incubated for 20 minutes at 4° C., cells were pelleted by centrifugation at 300×g and the supernatant discarded. […] AlexaFluor 647 signal intensity (geometric mean) was measured by flow cytometry using a Beckman Coulter CytoFLEX instrument.
For orientation: A flow cytometer gives signals particle by particle.

Assay [4] deals with T3, mouse PD-L1 expressed on CHO cells (mouse, UniProt Q9EP73 19-290).
T3 construct: also called CHO-S cells transfected with mPD-L1; CHO mouse PD-L1
T3 sequence (Q9EP73 19-290 limits assumed): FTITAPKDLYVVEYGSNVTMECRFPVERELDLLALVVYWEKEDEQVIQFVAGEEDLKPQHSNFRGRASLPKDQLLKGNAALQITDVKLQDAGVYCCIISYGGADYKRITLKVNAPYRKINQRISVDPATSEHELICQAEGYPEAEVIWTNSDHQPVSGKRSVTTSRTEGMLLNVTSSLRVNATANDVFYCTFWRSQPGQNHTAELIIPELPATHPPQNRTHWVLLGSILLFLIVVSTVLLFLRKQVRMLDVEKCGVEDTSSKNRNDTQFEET
Nature of the assay: Flow cytometry on CHO mouse PD-L1 cells (sentence prints 'human PD-L1').

The target of assay [5] is T1, mouse ICOS-mFc (Chimerigen). Description: HTRF, mouse ICOS-mFc, competitor mouse B7-H2-Alexa 647, mean as told in the text (table prints 0.37).
The target in assay [6] is T4, Biotinylated human ICOS protein (human, UniProt Q9Y6W8 21-140, limits assumed, biotinylated (sites not given)).
T4 construct: Captured on the NLC chip in the avidity SPR
T4 sequence: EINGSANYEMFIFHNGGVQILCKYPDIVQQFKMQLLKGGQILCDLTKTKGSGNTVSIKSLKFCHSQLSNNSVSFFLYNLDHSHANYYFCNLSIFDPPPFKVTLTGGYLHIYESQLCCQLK
Nature of the assay: SPR ProteOn avidity format, biotinylated human ICOS on NLC chip, antibody analyte; apparent KD from equilibrium, 25 C. The protocol: Biotinylated human ICOS protein diluted at 7.5 μg/mL in running buffer (1× HBS-EP+ Buffer Technova, cat. No. H8022) was captured on a NLC sensor chip (Bio-Rad, cat No 1765021). The surface was then blocked using biocytin (Sigma Aldrich, cat No B1758) at 1 mg/mL.
The assay was carried out at 25° C.
The buffer injection (i.e. 0 nM) was used to double reference the sensorgrams. The analysis was carried out using the equilibrium model inherent to the ProteOn's analysis software for each mAb² construct.

B1: STIM003 (antibody, human IgG1, kappa)
heavy: not shown
light: EIVLTQSPGTLSLSPGERATLSCRASQSVSRSYLAWYQQKRGQAPRLLIYGASSRATGIPDRFSGDGSGTDFTLSISRLEPEDFAVYYCHQYDMSPFTFGPGTKVDIKRTVAAPSVFIFPPSDEQLKSGTASVVCLLNNFYPREAKVQWKVDNALQSGNSQESVTEQDSKDSTYSLSSTLTLSKADYEKHKVYACEVTHQGLSSPVTKSFNRGEC
notes: Anti-ICOS monospecific antibody, tested as human IgG1; also called STIM003 monoclonal IgG1 antibody
For the molecule B1, the concentration giving a half-maximal response (EC50) in assay [1] was 0.338 nM; in assay [3] it was 7.28 nM. Besides, the IC50 stood at 0.14 nM in assay [2] and 0.12 nM in assay [5]. In addition, the binding result in assay [4] is reported as “no binding (tested: 22 nM)”.

B2: STIM001 (antibody, human IgG1, kappa)
heavy: not shown
light: DIVMTQSPLSLPVTPGEPASISCRSSQSLLHSNEYNYLDWYLQKPGQSPQLLIFLGSNRASGVPDRFSGSGSGTDFTLKITRVEAEDVGIYYCMQSLQTPLTFGGGTKVEIKRTVAAPSVFIFPPSDEQLKSGTASVVCLLNNFYPREAKVQWKVDNALQSGNSQESVTEQDSKDSTYSLSSTLTLSKADYEKHKVYACEVTHQGLSSPVTKSFNRGEC
notes: Anti-ICOS monospecific antibody, tested as human IgG1; also called STIM001 monoclonal IgG1 antibody
As for B2, the results for the EC50 in assay [1] and in assay [3] were 1.73 nM and 20.1 nM, respectively. This molecule also yielded an IC50 in assay [2] of 8.91 nM. For the same molecule, the Kd in assay [6] was 57.1 nM. For the same molecule, the binding result in assay [4] was “no binding (tested: 22 nM)”.

The term EC50 denotes the concentration giving half of the maximal effect. By IC50 is commonly meant the concentration that inhibits the measured activity by half. A higher IC50 goes with a need for much substance.
